Reference: PMC6953809

How the values were obtained:
[1] = biological target: EGFP-rGR as used in the number and brightness assay (Fig 7) and in the ccN&B with alternative ligands (Fig 9) (rat) (UniProt P06536); experiment: number and brightness assay (N&B); living 3617 cells, transiently transfected, nucleoplasm, 100 nM corticosterone; average molecular brightness (ε) in one channel with different co-expressed partners
[2] = biological target: EGFP-rGR as used in the number and brightness assay (Fig 7) and in the ccN&B with alternative ligands (Fig 9) (rat) (UniProt P06536); experiment: cross-correlation number and brightness assay (ccN&B); living 3617 cells +tetracycline, transiently transfected, nuclear Bcc relative to 100 nM corticosterone (100%); 100 nM of alternative ligands (cortisol, prednisolone, dexamethasone, aldosterone) or dexamethasone 10 nM + aldosterone 10 nM, aldosterone 10 nM + RU486 1 μM, corticosterone 10 nM + RU486 1 μM

Row | Substance | average molecular brightness (ε) of EGFP-rGR paired with mCherry-rGR, percent of the +mCherry reference [1] [%] | stoichiometry N [1] | Bcc value with 100 nM cortisol, percent of the Bcc value with corticosterone [2] [%] | Bcc value with 100 nM prednisolone, percent of the Bcc value with corticosterone [2] [%]
1 | EGFP-rGR as used in the number and brightness assay (Fig 7) and in the ccN&B with alternative ligands (Fig 9) (from UniProt P06536 1-795) (receptor) | 63.3 | 2 | – | –
2 | mCherry-tagged rat mineralocorticoid receptor, transiently expressed in 3617 cells (from UniProt P22199 1-981) | – | – | 70 | 60
